We go through four molecules from patent US20140274782A1, “AFFINITY REAGENTS AND METHODS FOR DETECTION, PURIFICATION, AND PROTEOMIC ANALYSIS OF METHYLATED PROTEINS” (The Board of Trustees of the Leland Stanford Junior …, priority 2013, published 2014).

The chains are these.
T1: G9a and GLP (Homo sapiens, UniProt Q96KQ7+Q9H9B1)
T1 sequence (Q96KQ7 2-1210 limits assumed): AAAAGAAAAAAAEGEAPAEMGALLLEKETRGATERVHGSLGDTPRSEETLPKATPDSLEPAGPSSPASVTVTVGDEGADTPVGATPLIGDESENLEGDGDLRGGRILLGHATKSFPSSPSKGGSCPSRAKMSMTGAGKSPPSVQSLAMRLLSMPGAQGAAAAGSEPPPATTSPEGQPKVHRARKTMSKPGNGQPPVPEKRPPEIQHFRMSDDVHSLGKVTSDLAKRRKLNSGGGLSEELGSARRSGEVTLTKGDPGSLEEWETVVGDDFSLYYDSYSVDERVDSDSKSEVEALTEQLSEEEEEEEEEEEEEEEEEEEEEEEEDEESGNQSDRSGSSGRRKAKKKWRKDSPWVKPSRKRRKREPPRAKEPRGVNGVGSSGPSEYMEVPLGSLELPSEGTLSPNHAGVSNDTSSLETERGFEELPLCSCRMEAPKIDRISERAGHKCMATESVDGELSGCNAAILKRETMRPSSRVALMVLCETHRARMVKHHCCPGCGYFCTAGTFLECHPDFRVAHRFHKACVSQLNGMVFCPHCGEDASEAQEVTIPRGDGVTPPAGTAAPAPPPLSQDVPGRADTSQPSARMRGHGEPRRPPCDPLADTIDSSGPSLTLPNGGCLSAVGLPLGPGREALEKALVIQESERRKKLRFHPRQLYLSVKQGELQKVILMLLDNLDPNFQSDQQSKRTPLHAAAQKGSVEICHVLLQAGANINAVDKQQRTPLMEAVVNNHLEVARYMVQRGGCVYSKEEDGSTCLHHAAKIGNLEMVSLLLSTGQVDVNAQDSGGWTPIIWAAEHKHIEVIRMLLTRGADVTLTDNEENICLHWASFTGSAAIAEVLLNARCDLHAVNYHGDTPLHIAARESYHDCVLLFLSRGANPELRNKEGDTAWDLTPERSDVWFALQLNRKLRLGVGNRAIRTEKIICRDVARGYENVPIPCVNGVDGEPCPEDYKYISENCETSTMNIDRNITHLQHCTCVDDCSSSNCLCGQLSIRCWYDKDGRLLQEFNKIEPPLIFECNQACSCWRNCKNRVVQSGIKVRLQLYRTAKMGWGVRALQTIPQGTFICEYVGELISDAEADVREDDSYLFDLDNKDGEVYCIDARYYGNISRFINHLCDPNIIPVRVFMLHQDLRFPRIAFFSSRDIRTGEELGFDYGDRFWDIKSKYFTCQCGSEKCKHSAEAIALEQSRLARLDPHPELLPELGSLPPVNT
T1 sequence (Q9H9B1 2-1298 limits assumed): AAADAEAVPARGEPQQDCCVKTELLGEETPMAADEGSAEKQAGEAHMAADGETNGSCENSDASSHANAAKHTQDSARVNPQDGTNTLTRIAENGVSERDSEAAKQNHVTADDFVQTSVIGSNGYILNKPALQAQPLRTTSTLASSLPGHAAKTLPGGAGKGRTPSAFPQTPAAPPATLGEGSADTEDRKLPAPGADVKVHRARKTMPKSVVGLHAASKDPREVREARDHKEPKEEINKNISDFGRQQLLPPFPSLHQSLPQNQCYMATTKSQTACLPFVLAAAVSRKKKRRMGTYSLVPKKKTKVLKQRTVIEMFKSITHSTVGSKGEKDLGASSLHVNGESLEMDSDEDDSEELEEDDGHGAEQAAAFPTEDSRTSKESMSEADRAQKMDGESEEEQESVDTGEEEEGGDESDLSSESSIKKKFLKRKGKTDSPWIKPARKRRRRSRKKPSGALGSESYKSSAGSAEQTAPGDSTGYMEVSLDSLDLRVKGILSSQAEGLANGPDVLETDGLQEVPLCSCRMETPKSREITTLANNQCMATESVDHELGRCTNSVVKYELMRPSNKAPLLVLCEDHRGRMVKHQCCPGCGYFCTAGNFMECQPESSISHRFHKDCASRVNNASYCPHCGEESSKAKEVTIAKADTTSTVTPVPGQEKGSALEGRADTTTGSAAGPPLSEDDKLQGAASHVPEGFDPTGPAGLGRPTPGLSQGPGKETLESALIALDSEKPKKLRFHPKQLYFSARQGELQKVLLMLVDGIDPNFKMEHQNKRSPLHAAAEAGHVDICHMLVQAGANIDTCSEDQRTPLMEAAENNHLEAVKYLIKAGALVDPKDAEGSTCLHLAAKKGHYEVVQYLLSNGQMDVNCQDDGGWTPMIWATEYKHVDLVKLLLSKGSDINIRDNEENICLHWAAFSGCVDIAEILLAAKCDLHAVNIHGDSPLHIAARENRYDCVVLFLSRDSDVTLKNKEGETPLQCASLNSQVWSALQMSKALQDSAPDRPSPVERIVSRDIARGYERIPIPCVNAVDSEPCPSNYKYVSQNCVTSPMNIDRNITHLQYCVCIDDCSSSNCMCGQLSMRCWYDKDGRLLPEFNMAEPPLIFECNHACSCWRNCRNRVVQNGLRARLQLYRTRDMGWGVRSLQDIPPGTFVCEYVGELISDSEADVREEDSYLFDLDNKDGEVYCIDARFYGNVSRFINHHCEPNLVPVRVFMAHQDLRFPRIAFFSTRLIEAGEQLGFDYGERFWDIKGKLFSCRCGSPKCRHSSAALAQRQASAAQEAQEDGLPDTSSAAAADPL

B1: CSDE1 (protein, UniProt O75534 1-798, looked up)
Cold shock domain-containing …: MSFDPNLLHNNGHNGYPNGTSAALRETGVIEKLLTSYGFIQCSERQARLFFHCSQYNGNLQDLKVGDDVEFEVSSDRRTGKPIAVKLVKIKQEILPEERMNGQVVCAVPHNLESKSPAAPGQSPTGSVCYERNGEVFYLTYTPEDVEGNVQLETGDKINFVIDNNKHTGAVSARNIMLLKKKQARCQGVVCAMKEAFGFIERGDVVKEIFFHYSEFKGDLETLQPGDDVEFTIKDRNGKEVATDVRLLPQGTVIFEDISIEHFEGTVTKVIPKVPSKNQNDPLPGRIKVDFVIPKELPFGDKDTKSKVTLLEGDHVRFNISTDRRDKLERATNIEVLSNTFQFTNEAREMGVIAAMRDGFGFIKCVDRDVRMFFHFSEILDGNQLHIADEVEFTVVPDMLSAQRNHAIRIKKLPKGTVSFHSHSDHRFLGTVEKEATFSNPKTTSPNKGKEKEAEDGIIAYDDCGVKLTIAFQAKDVEGSTSPQIGDKVEFSISDKQRPGQQVATCVRLLGRNSNSKRLLGYVATLKDNFGFIETANHDKEIFFHYSEFSGDVDSLELGDMVEYSLSKGKGNKVSAEKVNKTHSVNGITEEADPTIYSGKVIRPLRSVDPTQTEYQGMIEIVEEGDMKGEVYPFGIVGMANKGDCLQKGESVKFQLCVLGQNAQTMAYNITPLRRATVECVKDQFGFINYEVGDSKKLFFHVKEVQDGIELQAGDEVEFSVILNQRTGKCSACNVWRVCEGPKAVAAPRPDRLVNRLKNITLDDASAPRLMVLRQPRGPDNSMGFGAERKIRQAGVID
B2: PRPF38B (protein, UniProt Q5VTL8 2-546, looked up)
Pre-mRNA-splicing factor 38B: ANNSPALTGNSQPQHQAAAAAAQQQQQCGGGGATKPAVSGKQGNVLPLWGNEKTMNLNPMILTNILSSPYFKVQLYELKTYHEVVDEIYFKVTHVEPWEKGSRKTAGQTGMCGGVRGVGTGGIVSTAFCLLYKLFTLKLTRKQVMGLITHTDSPYIRALGFMYIRYTQPPTDLWDWFESFLDDEEDLDVKAGGGCVMTIGEMLRSFLTKLEWFSTLFPRIPVPVQKNIDQQIKTRPRKIKKDGKEGAEEIDRHVERRRSRSPRRSLSPRRSPRRSRSRSHHREGHGSSSFDRELEREKERQRLEREAKEREKERRRSRSIDRGLERRRSRSRERHRSRSRSRDRKGDRRDRDREREKENERGRRRDRDYDKERGNEREKERERSRERSKEQRSRGEVEEKKHKEDKDDRRHRDDKRDSKKEKKHSRSRSRERKHRSRSRSRNAGKRSRSRSKEKSSKHKNESKEKSNKRSRSGSQGRTDSVEKSKKREHSPSKEKSRKRSRSKERSHKRDHSDSKDQSDKHDRRRSQSIEQESQEKQHKNKDETV
B3: RBM14 (protein, UniProt Q96PK6 1-669, looked up)
RNA-binding protein 14: MKIFVGNVDGADTTPEELAALFAPYGTVMSCAVMKQFAFVHMRENAGALRAIEALHGHELRPGRALVVEMSRPRPLNTWKIFVGNVSAACTSQELRSLFERRGRVIECDVVKDYAFVHMEKEADAKAAIAQLNGKEVKGKRINVELSTKGQKKGPGLAVQSGDKTKKPGAGDTAFPGTGGFSATFDYQQAFGNSTGGFDGQARQPTPPFFGRDRSPLRRSPPRASYVAPLTAQPATYRAQPSVSLGAAYRAQPSASLGVGYRTQPMTAQAASYRAQPSVSLGAPYRGQLASPSSQSAAASSLGPYGGAQPSASALSSYGGQAAAASSLNSYGAQGSSLASYGNQPSSYGAQAASSYGVRAAASSYNTQGAASSLGSYGAQAASYGAQSAASSLAYGAQAASYNAQPSASYNAQSAPYAAQQAASYSSQPAAYVAQPATAAAYASQPAAYAAQATTPMAGSYGAQPVVQTQLNSYGAQASMGLSGSYGAQSAAAATGSYGAAAAYGAQPSATLAAPYRTQSSASLAASYAAQQHPQAAASYRGQPGNAYDGAGQPSAAYLSMSQGAVANANSTPPPYERTRLSPPRASYDDPYKKAVAMSKRYGSDRRLAELSDYRRLSESQLSFRRSPTKSSLDYRRLPDAHSDYARYSGSYNDYLRAAQMHSGYQRRM
B4: CBR1 (protein, UniProt P16152 2-277, looked up)
Carbonyl reductase [NADPH] 1: SSGIHVALVTGGNKGIGLAIVRDLCRLFSGDVVLTARDVTRGQAAVQQLQAEGLSPRFHQLDIDDLQSIRALRDFLRKEYGGLDVLVNNAGIAFKVADPTPFHIQAEVTMKTNFFGTRDVCTELLPLIKPQGRVVNVSSIMSVRALKSCSPELQQKFRSETITEEELVGLMNKFVEDTKKGVHQKEGWPSSAYGVTKIGVTVLSRIHARKLSEQRKGDKILLNACCPGWVRTDMAGPKATKSPEEGAETPVYLALLPPDAEGPHGQFVSEKRVEQW

In one assay the target is T1, G9a and GLP. The assay can be described thus: Triple SILAC pull-down after UNC0638 treatment of 293T cells, DMSO/UNC0638 ratio of protein captured by 3×MBT.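 Further: mass spectrometry (Q-Exactive) SILAC quantitation, DMSO/UNC0638 ratio computed after subtracting 3×MBTD355N mutant pull-down background, only proteins with at least twofold 3×MBT over mutant signal considered.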 Also noted: endogenous in cells; host or cells: HEK 293T. The following applies: SILAC ratio DMSO/UNC0638 of protein pulled down with 3xMBT; UNC0638 in heavy SILAC media. The assay is classed as cell-based.
For B1, the “Relative to UNC0638 UNC Heavy” value was 0.16 log base 2.

B2: the “Relative to UNC0638 UNC Heavy” value is reported as −0.03 log base 2.

B3: the “Relative to UNC0638 UNC Heavy” value is reported as 0.06 log base 2.

In the case of B4, the “Relative to UNC0638 UNC Heavy” value is listed as −0.09 log base 2.

Staying with this assay, now noted: SILAC ratio DMSO/UNC0638 of protein pulled down with 3xMBT; UNC0638 in light SILAC media.
For the molecule B1, the “Relative to UNC0638 UNC Light” value stood at 0.08 log base 2.

Turning to B2, the “Relative to UNC0638 UNC Light” value worked out at 0.26 log base 2.

B3: the “Relative to UNC0638 UNC Light” value is reported as 0.17 log base 2.

As for B4, the “Relative to UNC0638 UNC Light” value was 1.14 log base 2.

Staying with this assay, now noted: average of UNC Light and UNC Heavy experiments.
On to B1, for which the “Relative to UNC0638 Average” value is listed as 0.12 log base 2.

Turning to B2, the “Relative to UNC0638 Average” value was 0.12 log base 2.

Consider B3, for which the “Relative to UNC0638 Average” value is 0.11 log base 2.

Take B4: the “Relative to UNC0638 Average” value was 0.53 log base 2.

For another assay, the system named is 3×MBT domain of L3MBTL1. The assay can be described thus: Triple SILAC pull-down, 3xMBT/3xMBTD355N ratio (cytoplasmic, nuclear and chromatin fractions of 293T cells).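 Further: proteins quantified with MaxQuant, requiring at least two unique peptides and quantification in both label directions, normalized to the mean of proteins from a digested loading control.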 The assay is classed as binding, human. Particulars: SILAC ratio, pull-down 3xMBT vs 3xMBTD355N; experiment with UNC0638 in heavy SILAC media.
As for B1, the “3xMBT/D355N UNC Heavy” value is 2.33 log base 2.

B2: the “3xMBT/D355N UNC Heavy” value is 2.44 log base 2.

Turning to B3, the “3xMBT/D355N UNC Heavy” value was 0.82 log base 2.

As to B4, the “3xMBT/D355N UNC Heavy” value is listed as 1.12 log base 2.

Still in this assay, the particulars now being: SILAC ratio, pull-down 3xMBT vs 3xMBTD355N; experiment with UNC0638 in light SILAC media.
Consider B1, for which the “3xMBT/D355N UNC Light” value is 2.17 log base 2.

Take B2: the “3xMBT/D355N UNC Light” value was determined as 2.96 log base 2.

As to B3, the “3xMBT/D355N UNC Light” value was 1.89 log base 2.

For the molecule B4, the “3xMBT/D355N UNC Light” value was found to be 0.84 log base 2.
